Measurements reported in patent US20200079876A1 (BIOVERATIV USA, published 2020).

T1: purified human activated C1s protein, two-chain form (Homo sapiens, UniProt P09871 16-688)
T1 construct: Purified protein bought from EMD Millipore; Biotin-labeled in the clone screen; also called active C1s; native C1s protein
T1 sequence: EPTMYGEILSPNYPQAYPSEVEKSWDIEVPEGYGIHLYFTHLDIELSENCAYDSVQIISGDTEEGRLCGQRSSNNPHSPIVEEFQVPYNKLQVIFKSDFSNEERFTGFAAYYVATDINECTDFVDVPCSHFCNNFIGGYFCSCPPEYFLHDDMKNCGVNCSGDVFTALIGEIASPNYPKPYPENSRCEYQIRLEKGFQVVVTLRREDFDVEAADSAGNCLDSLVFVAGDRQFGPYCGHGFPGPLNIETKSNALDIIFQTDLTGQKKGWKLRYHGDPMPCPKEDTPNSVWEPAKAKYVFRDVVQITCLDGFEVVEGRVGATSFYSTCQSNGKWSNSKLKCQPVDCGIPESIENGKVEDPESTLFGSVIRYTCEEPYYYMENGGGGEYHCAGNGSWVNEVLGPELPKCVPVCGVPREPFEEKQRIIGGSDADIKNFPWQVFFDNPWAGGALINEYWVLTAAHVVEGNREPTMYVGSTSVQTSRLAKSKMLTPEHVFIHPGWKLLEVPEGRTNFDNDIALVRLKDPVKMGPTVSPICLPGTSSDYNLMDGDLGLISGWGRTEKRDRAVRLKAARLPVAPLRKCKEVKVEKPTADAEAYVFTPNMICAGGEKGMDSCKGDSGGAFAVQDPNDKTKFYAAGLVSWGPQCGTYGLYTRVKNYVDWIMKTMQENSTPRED

T2: Pro-C1s
T2 construct: also called purified pro-C1s protein
T2 chain: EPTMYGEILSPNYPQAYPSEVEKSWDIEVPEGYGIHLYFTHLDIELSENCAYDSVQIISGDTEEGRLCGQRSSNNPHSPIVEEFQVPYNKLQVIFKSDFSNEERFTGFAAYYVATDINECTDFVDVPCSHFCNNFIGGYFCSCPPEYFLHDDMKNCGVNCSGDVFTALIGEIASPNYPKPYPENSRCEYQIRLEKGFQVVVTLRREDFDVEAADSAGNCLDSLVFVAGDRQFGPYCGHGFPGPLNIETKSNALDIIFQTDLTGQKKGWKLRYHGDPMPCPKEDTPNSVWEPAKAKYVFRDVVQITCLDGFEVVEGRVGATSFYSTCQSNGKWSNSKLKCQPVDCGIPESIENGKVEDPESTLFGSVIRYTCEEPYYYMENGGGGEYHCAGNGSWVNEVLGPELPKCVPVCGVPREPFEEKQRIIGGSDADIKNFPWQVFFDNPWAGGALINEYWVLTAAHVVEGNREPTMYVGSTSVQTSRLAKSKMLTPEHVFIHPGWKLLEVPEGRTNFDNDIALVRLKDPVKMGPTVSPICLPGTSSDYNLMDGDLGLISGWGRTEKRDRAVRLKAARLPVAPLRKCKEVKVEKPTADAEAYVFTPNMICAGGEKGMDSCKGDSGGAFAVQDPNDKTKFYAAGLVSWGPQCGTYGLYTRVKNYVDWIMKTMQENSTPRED

T3: recombinant human complement component C1s (rhC1s) (human, UniProt P09871 16-688)
T3 sequence (looked up): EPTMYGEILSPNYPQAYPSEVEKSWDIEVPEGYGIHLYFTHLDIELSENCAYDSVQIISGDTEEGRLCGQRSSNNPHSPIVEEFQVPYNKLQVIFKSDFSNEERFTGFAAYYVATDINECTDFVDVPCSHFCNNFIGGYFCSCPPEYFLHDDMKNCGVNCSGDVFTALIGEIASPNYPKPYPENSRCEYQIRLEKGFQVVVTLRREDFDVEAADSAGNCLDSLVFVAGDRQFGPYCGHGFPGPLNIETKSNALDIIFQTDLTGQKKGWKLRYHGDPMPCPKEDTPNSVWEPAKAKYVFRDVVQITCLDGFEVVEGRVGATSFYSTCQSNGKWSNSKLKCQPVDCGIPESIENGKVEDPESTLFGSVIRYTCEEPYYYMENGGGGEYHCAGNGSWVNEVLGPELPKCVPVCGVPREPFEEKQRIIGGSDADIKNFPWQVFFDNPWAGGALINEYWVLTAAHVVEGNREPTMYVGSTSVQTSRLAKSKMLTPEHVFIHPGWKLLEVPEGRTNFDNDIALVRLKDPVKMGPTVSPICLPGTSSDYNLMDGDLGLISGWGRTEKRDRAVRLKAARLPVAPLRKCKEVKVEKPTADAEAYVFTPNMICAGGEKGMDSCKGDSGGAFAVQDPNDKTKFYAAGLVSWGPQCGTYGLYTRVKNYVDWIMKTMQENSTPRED


Tests used:
[1] = biological target: T1, purified human activated C1s protein, …; experiment: bio-layer interferometry (BLI), kinetic analysis
Pro-C1s = biological target: T2, Pro-C1s; experiment: bio-layer interferometry (BLI), kinetic analysis
[2] = biological target: T3, recombinant human complement component …; experiment: cell-based or functional assay
[3] = biological target: T3, recombinant human complement component …; experiment: cell-based or functional assay; remark: listed apart in the source

| Binder | Kd [1] | koff [1] | kon [1] | Kd (Pro-C1s) | koff (Pro-C1s) | kon (Pro-C1s) | Inhibition of C1s Protease Activity (%), single point with clone supernatant, relative to 100 nM nafamostat [2] | inhibition of C1s protease activity (relative to nafamostat) [3] |
| --- | --- | --- | --- | --- | --- | --- | --- | --- |
| antibody IPN-M2 (antibody, V domains shown, Mouse monoclonal antibody (NZBW hybridoma); Same VL and VH as IPN-M8) VH: EVKLQQSGAELVRPGASVKLSCTASGFNIKDDYIHWVKQRPEQGLEWIGRIDPADGHTKYAPKFQVKATITADTSSNTAYLQLSSLTSEDTAVYYCARYGYGREVFDYWGQGTTLTVSS VL: DIVLTQSPASLAVSLGQRATISCKASQSVDYDGDSYMNWYQQKTGQPPKILIYDASNLESGIPARFSGSGSGTDFTLNIHPVEEEDAAIYYCQQSNEDPWTFGGGTKLEIK | 0.291 nM | 0.000279 s⁻¹ | 957000 M⁻¹ s⁻¹ | 42.3 nM | 0.000197 s⁻¹ | 4660 M⁻¹ s⁻¹ | 100% | > 50% |
| antibody IPN-M8 (antibody, V domains shown, Mouse monoclonal antibody (NZBW hybridoma); Same VL and VH as IPN-M2) VH: EVKLQQSGAELVRPGASVKLSCTASGFNIKDDYIHWVKQRPEQGLEWIGRIDPADGHTKYAPKFQVKATITADTSSNTAYLQLSSLTSEDTAVYYCARYGYGREVFDYWGQGTTLTVSS VL: DIVLTQSPASLAVSLGQRATISCKASQSVDYDGDSYMNWYQQKTGQPPKILIYDASNLESGIPARFSGSGSGTDFTLNIHPVEEEDAAIYYCQQSNEDPWTFGGGTKLEIK | 0.213 nM | 0.000234 s⁻¹ | 1.12e+06 M⁻¹ s⁻¹ | 19.7 nM | 0.000178 s⁻¹ | 9080 M⁻¹ s⁻¹ | 100% | > 50% |
| antibody IPN-M33 (antibody, V domains shown, Mouse monoclonal antibody (NZBW hybridoma)) VH: QVKLQQSGPELVKPGTSVRISCKTSGYSFTGYYMHWVKQSPEKSLEWIGEINPSIGDITYNQRFKAKATLTVDKSSSTAYMQLKSLTSEDSAVYYCASDYYGGGFAWFAYWGQGTLVTVSA VL: DIVMTQSPAIMSASSGEKVTMTCSASSSINYMHWYQQKPGTSPKRWIYDTSKLASGVPARFSGSGSGTSYSLTISSMEAEDTATYYCHQRSDSLTFGSGTKLEIK | 0.329 nM | 0.000154 s⁻¹ | 467000 M⁻¹ s⁻¹ | 0.3 nM | 2.52e-05 s⁻¹ | 83800 M⁻¹ s⁻¹ | 97% | > 50% |
| antibody IPN-M11 (antibody, V domains shown, Mouse monoclonal antibody (NZBW hybridoma)) VH: QVQLQQSGAELVRPGASVKLSCTASGFNIKDDYIHWVKQRPEQGLEWIGRIDPADDHTKYAPKFQDKATMTADTSSNTACLQLNSLTSEDTAVYYCAIYGSGWAWFPYWGQGTLVSVSA VL: DIVMTQSPDYLAVSLGQRAPISCKASQSVDYDGDSYMNWYQQKPGQPPKLLIYAASNLEFGIPTRFSGSGFGTDFPLNIHPVEEEDAATYYCQQSNEDPWTFGGGPKLEIK | 0.21 nM | 0.000182 s⁻¹ | 864000 M⁻¹ s⁻¹ | 35.2 nM | 0.000329 s⁻¹ | 9330 M⁻¹ s⁻¹ | 92% | > 50% |

Other lines, results leading:

| Kd [1] | koff [1] | kon [1] | Kd (Pro-C1s) | koff (Pro-C1s) | kon (Pro-C1s) | Inhibition of C1s Protease Activity (%), single point with clone supernatant, relative to 100 nM nafamostat [2] | inhibition of C1s protease activity (relative to nafamostat) [3] | Binder |
| --- | --- | --- | --- | --- | --- | --- | --- | --- |
| 0.133 nM | 0.000113 s⁻¹ | 851000 M⁻¹ s⁻¹ | 15.9 nM | 0.000258 s⁻¹ | 16200 M⁻¹ s⁻¹ | 96% | > 50% | antibody IPN-M13 (antibody, V domains shown, Mouse monoclonal antibody (NZBW hybridoma); Same VL and VH as IPN-M1 and IPN-M3) VH: EVQLQQSGAELVRPGASVKLSCTASGFNIKDDYIHWVKQRPEQGLEWIGRIDPADDHTKYAPKFQDKATMTADTSSNTACLQLNSLTSEDTAVYYCAIYGSGWAWFPYWGQGTLVSVSA VL: DIVLTQSTDYLAVSLGQRATISCKASQSVDYDGDSYMNWYQQKPGQPPKLLIYAASNLESGIPARFSGSGSGTDFTLNIHPVEEEDAATYYCQQSNEDPWTFGGGTKLEIK |
| 0.187 nM | 0.000158 s⁻¹ | 845000 M⁻¹ s⁻¹ | 102 nM | 0.00041 s⁻¹ | 4040 M⁻¹ s⁻¹ | 89% | > 50% | antibody IPN-M3 (antibody, V domains shown, Mouse monoclonal antibody (NZBW hybridoma); Same VL and VH as IPN-M1 and IPN-M13) VH: EVQLQQSGAELVRPGASVKLSCTASGFNIKDDYIHWVKQRPEQGLEWIGRIDPADDHTKYAPKFQDKATMTADTSSNTACLQLNSLTSEDTAVYYCAIYGSGWAWFPYWGQGTLVSVSA VL: DIVLTQSTDYLAVSLGQRATISCKASQSVDYDGDSYMNWYQQKPGQPPKLLIYAASNLESGIPARFSGSGSGTDFTLNIHPVEEEDAATYYCQQSNEDPWTFGGGTKLEIK |
| 0.207 nM | 0.000231 s⁻¹ | 1.12e+06 M⁻¹ s⁻¹ | 13.5 nM | 0.000223 s⁻¹ | 16500 M⁻¹ s⁻¹ | 100% | > 50% | antibody IPN-M14 (antibody, V domains shown, Mouse monoclonal antibody (NZBW hybridoma)) VH: EVKLQQSGAELVRPGASVKLSCTASGFNIKDDYIHWVKQRPEQGLEWIGRIDPADGHTKYAPKFQVKATITADTSSNTAYLQLSSLTSEDTAVYYCARYGYGREVFDYWGQGTTLTVSS VL: DIVLTQFPTFLAVFLGQRAPISCKASQSVDYDGDSYMNWFQQKTGQPPKILIYDASNLEFGIPTRFSGSGFGTDFPLNIHPVEEEDAAIYFCQQSNEDPWTFGGGPKLEIK |
